Results taken from US20210395344A1 (TWIST BIOSCIENCE, published 2021).
Like-named read-outs stand apart in the source and are kept apart here.

What was measured:
[1] = target: T1, SARS-CoV-2 Spike Glycoprotein S1 (subunit 1) (SARS-CoV-2, UniProt P0DTC2 16-685); experiment: column DC/S1 (format not explained)
T1 construct: also called S1 Monomer; SARS-CoV-2 S1

[2] = target: T1, SARS-CoV-2 Spike Glycoprotein S1 …; experiment: screening phage ELISA, mean
[3] = target: T1, SARS-CoV-2 Spike Glycoprotein S1 …; experiment: screening phage ELISA, mean; remark: listed apart in the source
[4] = target: T1, SARS-CoV-2 Spike Glycoprotein S1 …; experiment: column Fc/S1 (format not explained)
[5] = target: T1, SARS-CoV-2 Spike Glycoprotein S1 …
[6] = target: T1, SARS-CoV-2 Spike Glycoprotein S1 …; experiment: ELISA binding titration
[7] = target: T1, SARS-CoV-2 Spike Glycoprotein S1 …; experiment: column Inhibitor IC50 (assay not explained)
SARS-CoV-2 S1 RBD = SARS-CoV-2 S1 RBD (SARS-CoV-2, UniProt P0DTC2 319-541)
[8] = target: T2, SARS-CoV-2 S protein trimer (SARS-CoV-2, UniProt P0DTC2 16-1213); experiment: column Fc/S-T (format not explained)
[9] = target: T1, SARS-CoV-2 Spike Glycoprotein S1 …; experiment: column DC/S1 (format not explained); clone 1-27
[10] = target: T2, SARS-CoV-2 S protein trimer; experiment: column DC/S-T (format not explained)

| Binder | Kd [1] | ELISA (Avg) [2] | ELISA (Avg) [3] | Kd [4] | IC50 [5] | EC50 [6] | IC50 [7] | IC50 (SARS-CoV-2 S1 RBD) | Kd [8] | Kd [9] | Kd [10] |
| --- | --- | --- | --- | --- | --- | --- | --- | --- | --- | --- | --- |
| 1-32 (antibody, V domains shown) VH: EVQLLESGGGLVQPGGSLRLSCAASGFTFSSYAMYWVRQAPGKGLEWVSAISGSGGSTFYADSVKGRFTISRDNSKNTLYLQMNSLRAEDTAVYYCTRPPYGDYGDYWGQGTLVTVSS VL: QSALTQPASVSGSPGQSITISCTGTSSDVGGYNLVSWYQQHPGKAPKLMIYEGNKRPSGVSNRFSGSKSGNTASLTISGLQAEDEADYYCCSYAGSSTFPVVFGGGTKLTVL | 0.0148 µM | 17.9 | 17.9 | 2.98 µM | 0.0322 µM | – | – | – | – | – | – |
| 1-53 (antibody, V domains shown) VH: EVQLLESGGGLVQPGGSLRLSCAASGFTFSSYTMSWVRQAPGKGLEWVSVISGSGGSTYYADSVKGRFTISRDNSKNTLYLQMNSLRAEDTAVYYCAREGYRDYLWYFDLWGQGTLVTVSS VL: QSALTQPASVSGSPGQSITISCTGTSTDVGSYNLVSWYQQHPGKAPKLMIYEGTKRPSGVSNRFSGSKSGNTASLTISGLQAEDEADYYCCSYAGSYTSVVFGGGTKLTVL | – | 21.7 | 21.7 | – | – | 0.0103 µM | 1.43 µM | 0.0143 µM | – | – | – |
| 1-27 (antibody, V domains shown) VH: EVQLLESGGGLVQPGGSLRLSCAASGFTFSSYAMTWVRQAPGKGLEWVSAISGSGGGTYYADSVKGRFTISRDNSKNTLYLQMNSLRAEDTAVYYCASSSSWQFDYWGQGTLVTVSS VL: QSALTQPASVSGSPGQSITISCTGTSSYVGHYNLVSWYQQHPGKAPKLMIYEGSRRPSGVSNRFSGSKSGNTASLTISGLQAEDEADYYCCSYAGSYTHYVFGGGTKLTVL | – | 27.2 | 27.2 | 0.0096 µM | – | 0.000148 µM | – | – | 0.0096 µM | 5.52 µM | – |
| 1-33 (antibody, V domains shown) VH: EVQLLESGGGLVQPGGSLRLSCAASGFTFSSYAMIWVRQAPGKGLEWVSAISGSGGSTFYADSVKGRFTISRDNSKNTLYLQMNSLRAEDTAVYYCTRPPYGDYGDYWGQGTLVTVSS VL: QSALTQPASVSGSPGQSITISCTGTSSDVGSYNLLSWYQQHPGKAPKLMIYEASKRPSGVSNRFSGSKSGNTASLTISGLQAEDEADYYCCSYAGSRTPVVFGGGTKLTVL | 0.0081 µM | 17.6 | 17.6 | – | – | 0.0175 µM | – | – | – | – | 1740 µM |
